Source: the nanobody polyreactivity screen of Harvey et al. (2022)

Experiment: yeast display, Sf9 membrane polyspecificity reagent, FACS + sequencing; frameworks hold sequencing errors
How it was run: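 Galactose-induced (36–48 hours) yeast carrying a synthetic nanobody display library were exposed to 10% biotinylated, detergent-solubilized Sf9 membrane reagent at 4 °C for 1 hour. FACS followed streptavidin microbead enrichment, using low and high (top ~1%) gates for expression (anti-HA) and reagent binding (streptavidin). Colony PCR, MiSeq 2 × 250 sequencing and CDR-length filtering followed. Labels for polyreactivity reflect the gate of origin.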

| Sequence | polyreactivity (PSR sort gate) |
| --- | --- |
| QVQLVESGGGLVQAGGSLRLSCAAYGSTFRRNTMGWYRQAPGKERELVAGISSSGGSTYYADSVKGRFTISRDTAMNTVYLQMNSLKPEDTAVYYCAARYYVSYVGYNYWGQCTQVTVSS | high polyreactivity |
| QVQLVESGGGLVQAGGSLRLSCAAYGSTFSLNTMGWYRQAPGKERELVAAITSGGSTNYADSVKGRFTISRDNAKNTVYLQMNSLKPEDTSVYYCAATPGRGGGYNYWGQGTQVTVSS | low polyreactivity |
| QVQLVESGGGLVQAGGSLRLSCAAYGSTFTDYDMGWYRQAPGKERELVAAITSGGSTNYADSVKGRFTISRDNAKNTVYLQMNSLKPEDTAVYYCAAADADRKYDYWGQGTQVTVSS | low polyreactivity |
| QVQLVESGGGLVQAGGSLRLSCAAYGSTLTRNAMGWYRQAPGKERELVATITATGGSTYYADSVKGRFTISRDNAKNTVYLQMTSLKPEDTAVYYCNKVYREYSLSYWSPTHWAYYYWGQGTQVTVSS | low polyreactivity |
| QVQLVESGGGLVQAGGSLRLSCAAYGYTFGYYTMGWYRQAPWKERQLVASIDSGGGTNYADSVKGRFTISRDNAKNTVYLQMNSLKPEDTAVYYCAAESPLYWVDDFESGWRYYYWGQGTQVTVSS | low polyreactivity |
| QVQLVESGGGLVQAGGSLRLSCADSGFIFLGNARGWYRQAAGKERELVAASSSGGSTYADSVKGRFTISRDNAKNTVYLQMNSLKPEDTAVYYCALDPPFPAQNYHEDDYWGQGTQVTVAS | low polyreactivity |
| QVQLVESGGGLVQAGGSLRLSCADSGFIFWVYAMGWYRQAPGKERELVAAITSGGGSTYYADSVKGRFTISRDNAKNTVYLQMNSLKPEDTAVYYCATSLYTDNSWENYWGQGTQVTVSS | high polyreactivity |
| QVQLVESGGGLVQAGGSLRLSCADSGFIIFRYAMGWYRQAPGKERELVAAITDDGSTYADSVKGRFTISRDNAKNTVYLQMNSLKPEDTAVYYCNVQSKSSYWWFGYDYWGQRTQVTVSS | low polyreactivity |
| QVQLVESGGGLVQAGGSLRLSCADSGFTFATYAMGWYRQAPGKKGRLVAAISNAGSTKYADSVKGRFTISRDNAKNTFYLQLNSLKPEDTAVYYCAASTLYASYYYLYYYWGQGTQVTVSS | high polyreactivity |
| QVQLVESGGGLVQAGGSLRLSCADSGFTFCSYTMGWYRQAPGKERELVAAITGGGNTKYADSVKGRFTISRDNAKNTFYLQMISLKPEDSAVYYCARLSRYKSYYTSRFDYWGQGNQVTVSS | high polyreactivity |
| QVQLVESGGGLVQAGGSLRLSCADSGFTFGVYVMGWYRQAPAKERELVAAISRSGGSTYYADSVKGRFTISRDKAKNTVYLQMNCLKPEETAVYYCNADRLVSYRAGEYDYWGQGTQVTVSS | high polyreactivity |
| QVQLVESGGGLVQAGGSLRLSCADSGFTFKSYTMGWYRQAPGKERELVAAISRRDGSTYYADSVKGRFTISRDNAKNTVYLQMNSLKPEDTAVYYCAKVWYGDRNIDRYDYWGQGTQVTVSS | high polyreactivity |
| QVQLVESGGGLVQAGGSLRLSCADSGFTFSWYTMGWYRQAPGKERELVAALTVSGGSTYYADSVKGRFTISRDNAKNTVYLQMNSLKPEDTAVYYCNAQDPFTYYSSSPTYDYWGQGTQVTVSS | low polyreactivity |
| QVQLVESGGGLVQAGGSLRLSCADSGFTFWYYDMGWYRQAPGKERELVAAITNGGRTYYADSVKGRFTISRDNAKNTVYLQMNSLKPEDTAVYYCAVLGGHGFYQGDYWGQGTQVTVSS | high polyreactivity |
| QVQLVESGGGLVQAGGSLRLSCADSGFTYAYYVMGWYRQAPGKERELVAAISISGGRTYYADSVKGRFTISRDNAKNTVYLQMNSLKPEDTAVYYCAADRRTDGHDYWGQGTQVTVSS | high polyreactivity |
| QVQLVESGGGLVQAGGSLRLSCADSGGTFESYAMGWYRQAPGKERELVAAITGRGGRTYYADSVKGRFTISRDNAKNTVYLQRNSLKPEDTAVYYCAARSPPRGYSRILDYWGQGTQVTVSS | high polyreactivity |
| QVQLVESGGGLVQAGGSLRLSCADSGGTFFGYAMGWYRQAPGKERELVAAIRWSDGRTYYADSVKGRFTISRDNAKNTVFLQMNSLKPEDTAVYYCNADDARLFDYWGQGTQVTVSS | low polyreactivity |
| QVQLVESGGGLVQAGGSLRLSCADSGIIFKGYDMGWYSQPPGKEREVVAAIYSGSTNYADSVKGRFTISRDNAKNTVYLQMNSLKPEDTAVYYCNSDLGRATFYQRVFIERGGYWGQGTQVTVSS | low polyreactivity |
| QVQLVESGGGLVQAGGSLRLSCADSGITFFIYAMGWYIQAPGKERELVAAISGRSGSTYYADSVKGRFTISRDNAKNTVYLQMNSLKPEDTAVYYCAAGLTFFSYSLDYWGQGTQVTVSS | low polyreactivity |
| QVQLVESGGGLVQAGGSLRLSCADSGITFPVNDMGWSRQAHGKEREFVADITSSGGNTYYADSVKGRFTISRDNAKNTVYLKMNSLIPEDTAVYYCNADDGYFYVYQGWYEEMDYWGQGNQVTVSS | high polyreactivity |

| Sequence | polyreactivity (PSR sort gate) |
| --- | --- |
| QVQLVESGGGLVQAGGSLRLSCADSGITFSVYAMGWYRQAPGKERELVASISSGGTSTYYADSVKGRFTISRDNAKNTVYLQMNSQKPEDTAVYYCAAYSYYTGDQYSYDYWGQGTQVTVSS | low polyreactivity |
| QVQLVESGGGLVQAGGSLRLSCADSGITFWTNTMGWYRQAPGKERELVAVITSGGTTNYADSVKGRFTISRDNAKNTVYLQMNSLKPEDTAVYYCAKKYGYFGLHGYWGQGTQVTVSS | high polyreactivity |
| QVQLVESGGGLVQAGGSLRLSCADSGLTFYRYAMGWYRQAPGKERELVAAIRVSGNTYYADSVKGRFTISRDNAKNTVYLQMNSLKPEDTAVYYCAAKPYYFYGMDYWGQGTQVTVSS | high polyreactivity |
| QVQLVESGGGLVQAGGSLRLSCADSGNIFRSYKGWYRQAPGKERELVASISRRGGSTYYADSVKGRFTISRDNAKNTVYLQINSLKPEDSAVYYCARRWSWVNGVFGLYWGQGTQVTLSS | high polyreactivity |
| QVQLVESGGGLVQAGGSLRLSCADSGNTFPSYVMGWYRQAPGKERELVAAINRGGGTYYADSVKGRFTISRDNAKNTVYLQMNSLKPEDTAVYYCAVRYQRHPNMDYWGQGTQVTVSS | low polyreactivity |
| QVQLVESGGGLVQAGGSLRLSCADSGNTIYGYAMGWNRQAPGKERELVASITLSGDSTYYADSVKGRFTISRDNAKNTVFLQMNRLKPEDTSVYYCSGVYTYPLGYYHYTYDYWGQGSQVTVSS | low polyreactivity |
| QVQLVESGGGLVQAGGSLRLSCADSGRIFGYYAMGWYRQAPGKERELVAAITVSDGRTNYADSVKGRFTISRDNAKNTVYLQMNSLKPEDTAVYYCAAVTPFRVLYDYWGQGTQVTVSS | low polyreactivity |
| QVQLVESGGGLVQAGGSLRLSCADSGRIFHYNAMGWYRQAPRKERELVAAISTGGSTNYADSVKGRFTISRDNAKNTVYLQMNSLNPEDTAVYYCAADHPVTYPTSKFDYCGQGTQVTVSS | low polyreactivity |
| QVQLVESGGGLVQAGGSLRLSCADSGRIFRRYAMGWYRQAPGKERELVAAITTSGGSTYYADSVKGRFTISRDNAKNTVYLQMNSLKPEDTAVYYCNARSSVYGHRKGSARIPRYDYWGQGTQVTVSS | high polyreactivity |
| QVQLVESGGGLVQAGGSLRLSCADSGRIFVRKAMGWYRQAPGKERELVAAISARGGRTNYADSVKGRFTISRDNAKNTVYLQMNSLKPEDTAVYYCAADGLRAAYLYDYWGQGTQVTVSS | high polyreactivity |
| QVQLVESGGGLVQAGGSLRLSCADSGRIIPSYDMGWYRQAPGKERELVAVIRSSVDGTYYADSVKGRFTISRDNAKNTVYLQMNSLKPEDTAVYDCAADSLTPKSASDYWGQGTQVTVSS | low polyreactivity |
| QVQLVESGGGLVQAGGSLRLSCADSGRTFKFNAMGWYRQAPGKERELVVGITWTGSTTSYADSVKGRFTISRDNAKNTVYLQMNSLKPEDTAVYYCAADKIRFWYHGFYYRGQGTQVTVSS | low polyreactivity |
| QVQLVESGGGLVQAGGSLRLSCADSGRTFRNYAMGRYRQAPGKERELVATITSSGASTYYADSVKGRFTISRDNAKNTVYLQMNSLKPEDTAVYYCAARPYTGRYFLGYYYWGQGTQVTVSS | high polyreactivity |
| QVQLVESGGGLVQAGGSLRLSCADSGRTFRRYKMGWYRQAPGKERELVATISSGGSTYADSVKGRFTISRDNAKNTVYLQMNSLKPEDTAVYYCAARYDVAWYSKRYSWGQGTQVTVSS | high polyreactivity |
| QVQLVESGGGLVQAGGSLRLSCADSGRTFTGYVMGWYRQAPGKEREFVAVIRYRGGGTYYAYSVKGRFTISRDNAKNTVYLQMNSLKPEDTAVYYCSARWRYSYVGDFDYWGQGTQVTVSS | high polyreactivity |
| QVQLVESGGGLVQAGGSLRLSCADSGRTFTNNAMGWYIQAPGKERELVAAITSGGRTNYADSVKGRFTISRDNAKNTVYLQMNSLKPEDTAVYYCAARIPSDGYYYWGQGTQVTVSS | high polyreactivity |
| QVQLVESGGGLVQAGGSLRLSCADSGRTFYYYAMGWYRQAPGKERELVASISYSAGRTYADSVKGRFTISRDNAKNTVYLQMNSLKPEDTAVYYCNADVTTVPYTNDYWGQGTQVTVSS | high polyreactivity |
| QVQLVESGGGLVQAGGSLRLSCADSGRTIRGNAMGWYRQAPGKERELVAAITSSGGGTYYADSVKGRFTISRDNAKNTVYLQMNSLNPEDTAVFYGAAEYRDGYRFSYDYWGQGTQVTVSS | low polyreactivity |
| QVQLVESGGGLVQAGGSLRLSCADSGRTLGVYAMRWYRQAPGKERELVASISFSGGRTYYADSVKGRFTISRDNAKNTVYLQMNSLKPEDTAVYYCAAGGRVRYQTKYRYGYDYWGQGTQVTVSS | low polyreactivity |
| QVQLVESGGGLVQAGGSLRLSCADSGSGGYAMGWYRQAPGKERELVAAIDNGGSTYYADSVKGRFTISRDNAKNTVYLQMNSLKPEDTAVYYCAAAYRDYTQVTAGDYWGQGTQVTVSS | low polyreactivity |
